Data as given in PMC6697736, “A novel thermostable D-amino acid oxidase of the thermophilic fungus Rasamsonia emersonii strain YA” (Scientific Reports, 2019).

Assays:
ReDAAO [1] = biological target: T1, ReDAAO (Rasamsonia emersonii, UniProt A0A499UB99); assay: absorption spectrum; TLC of flavin released by heat denaturation; format: binding; details: noncovalent; co-purified from E. coli; pH 8.0
T1 construct: gene DAO1; full-length, 368 aa, codon-optimised synthetic ORF in pET15b, His-tagged, E. coli BL21(DE3) pLysS; 42 kDa subunit, 185 kDa tetramer; noncovalent FAD

ReDAAO [2] = biological target: T1, ReDAAO; assay: DNPH assay, […] D-Val as substrate; format: biochemical; details: read-out: % inhibition at 50 mM
purified protein [3] = substrate: C[C@@H](N)C(=O)O; assay: purified protein; details: apparent, 55 °C, 50 mM KPi pH 8.0, 0.02 mM FAD, O2 co-substrate
purified protein [4] = substrate: N=C(N)NCCC[C@@H](N)C(=O)O; assay: purified protein; format: biochemical, Rasamsonia emersonii; details: apparent, 55 °C, 50 mM KPi pH 8.0, 0.02 mM FAD, O2 co-substrate
purified protein [5] = substrate: N[C@H](CCC(=O)O)C(=O)O; assay: purified protein; format: biochemical, Rasamsonia emersonii; details: apparent, 55 °C, 50 mM KPi pH 8.0, 0.02 mM FAD, O2 co-substrate
purified protein [6] = substrate: CSCC[C@@H](N)C(=O)O; assay: purified protein; format: biochemical, Rasamsonia emersonii; details: apparent, 55 °C, 50 mM KPi pH 8.0, 0.02 mM FAD, O2 co-substrate
purified protein [7] = substrate: CC(C)[C@@H](N)C(=O)O; assay: purified protein; format: biochemical, Rasamsonia emersonii; details: apparent, 55 °C, 50 mM KPi pH 8.0, 0.02 mM FAD, O2 co-substrate

`Cc1cc2nc3c(=O)[nH]c(=O)nc-3n(C[C@H](O)[C@H](O)[C@H](O)COP(=O)(O)OP(=O)(O)OC[C@H]3O[C@@H](n4cnc5c(N)ncnc54)[C@H](O)[C@@H]3O)c2cc1C` [FAD] was tested, and the “absorption spectrum; TLC of flavin released by heat denaturation” value (ReDAAO [1]) was “ReDAAO contains noncovalently bound FAD that functions as a cofactor”.

`O=C(O)c1ccccc1` [benzoate] showed an inhibition at 50000 µM (ReDAAO [2]) of 13.2%.

For `O=C(O)C[C@@H](O)C(=O)O` [D-malate], the inhibition at 50000 µM (ReDAAO [2]) was 17.2%.

With `C/C=C/C(=O)O` [crotonate] the inhibition at 50000 µM (ReDAAO [2]) was 22.6%.

B1: ReDAAO (Rasamsonia emersonii) (protein)
chain: MATNNIVVLGAGVSGLTTAWLLSKDPSNKITVAAKHMPGDYDIEYCSPWAGANYLPVGAENSRVGQWERATWPHLRDIAQNHPEAGIHFQDTVVYNRTKDQGSTTGQWFSELVKPNPWYGKVLPNFRELSKDELPPGIDNANRFTSVCINTAVYLPWLVGQCRKNGVVFKRAVFKHVAEAANAHHSGQKADLVVNCTGLSSRKLGGVQDNTLLPARGQIVVVRNDPGLMCSISGTDDGDDEVTYMMTRAAGGGTILGGTYQKHNWDSLPDPNLAVRIMKRCIELCPSLVAPGQGIEGLDIIRHGVGLRPVREDGPRIEKELIDGVWVVHNYGHGGYGYQTSFGCATTAVEVVREALQQQKQRRDKARL
notes: full-length, 368 aa, codon-optimised synthetic ORF in pET15b, His-tagged, E. coli BL21(DE3) pLysS; 42 kDa subunit, 185 kDa tetramer; noncovalent FAD
Work on B1 yielded a Km (purified protein [3]) of 2700 ± 300 µM, a kcat (purified protein [3]) of 189 s⁻¹ and a kcat/Km (purified protein [3]) of 69900 M⁻¹ s⁻¹. The Km (purified protein [4]) was 19200 ± 4300 µM, the kcat (purified protein [4]) was 45.6 ± 4.5 s⁻¹ and the kcat/Km (purified protein [4]) was 2380 M⁻¹ s⁻¹. It also gave a Km (purified protein [5]) of 12100 ± 2900 µM, a kcat (purified protein [5]) of 90.7 ± 6.6 s⁻¹ and a kcat/Km (purified protein [5]) of 7490 M⁻¹ s⁻¹. It also gave a Km (purified protein [6]) of 213 ± 30 µM, a kcat (purified protein [6]) of 120 ± 3.1 s⁻¹ and a kcat/Km (purified protein [6]) of 562000 M⁻¹ s⁻¹. The Km (purified protein [7]) was 628 ± 40 µM, the kcat (purified protein [7]) was 225 ± 2.4 s⁻¹ and the kcat/Km (purified protein [7]) was 358000 M⁻¹ s⁻¹.
